In experiment [1] the target is acetylcholine receptor. Description: SPR, peptide at 10 uM on immobilized AchR. A general note: Surface plasmon resonance follows binding to a sensor surface in real time, without labels.
Experiment [2] deals with acetylcholine receptor. In words: SPR, AchR immobilized on chip, peptide 10 uM.

Turning to RKTDRR [6mer-2-1089], the Binding affinity (RU) with acetylcholine receptor [1] was determined as 43 RU.

The molecule RANVKR [6mer-2-1096] registered a Binding affinity (RU) with acetylcholine receptor [1] of 39 RU.

The molecule REKPRK [6mer-2-1084] came in with a Binding affinity (RU) with acetylcholine receptor [1] of 29 RU.

In turn, KYKMRR [6mer-2-1081] displayed a Binding affinity (RU) with acetylcholine receptor [1] of 32 RU.

With KPEHKR [6mer-2-1066], the Binding affinity (RU) with acetylcholine receptor [1] was found to be 29 RU.

RGVSK [5mer-452]: in the experiment with acetylcholine receptor [2], the Binding affinity (RU) is 82 RU.

With KAPARK [6mer-2-1052], in the experiment with acetylcholine receptor [1], the Binding affinity (RU) came out at 23 RU.

RKHMRR [6mer-2-1051]: the Binding affinity (RU) in the experiment with acetylcholine receptor [1] turned out to be 24 RU.

KKMFRK [6mer-2-1042] yielded a Binding affinity (RU) in the experiment with acetylcholine receptor [1] of 36 RU.

On to KDTFRR [6mer-2-1078], for which the Binding affinity (RU) in the experiment with acetylcholine receptor [1] was 40 RU.

In the case of RQVLK [5mer-451], the Binding affinity (RU) in the experiment with acetylcholine receptor [2] is 53 RU.

RHAHRR [6mer-2-1045] had a Binding affinity (RU) with acetylcholine receptor [1] of 41 RU.

The molecule KEEMRR [6mer-2-1087] had a Binding affinity (RU) in the experiment with acetylcholine receptor [1] of 21 RU.

In turn, RPMGRK [6mer-2-1074] registered a Binding affinity (RU) in the experiment with acetylcholine receptor [1] of 33 RU.

RCMKRR [6mer-2-1064] returned a Binding affinity (RU) with acetylcholine receptor [1] of 39 RU.

In turn, RFNVRK [6mer-2-1063] returned a Binding affinity (RU) with acetylcholine receptor [1] of 24 RU.

As for KMTIKK [6mer-2-1077], the Binding affinity (RU) in the experiment with acetylcholine receptor [1] came out at 34 RU.

The molecule KHPKRR [6mer-2-1098] showed a Binding affinity (RU) in the experiment with acetylcholine receptor [1] of 28 RU.

In the experiment with acetylcholine receptor [1], RAKFRR [6mer-2-1092] came in with a Binding affinity (RU) of 21 RU.

KEMHKK [6mer-2-1090] yielded a Binding affinity (RU) with acetylcholine receptor [1] of 33 RU.

In the experiment with acetylcholine receptor [2], RQVLR [5mer-454] registered a Binding affinity (RU) of 77 RU.

RPHVRR [6mer-2-1070]: the Binding affinity (RU) in the experiment with acetylcholine receptor [1] was determined as 31 RU.

Consider RDEIRK [6mer-2-1067], for which the Binding affinity (RU) with acetylcholine receptor [1] is 29 RU.

In the experiment with acetylcholine receptor [1], RKKKKK [6mer-2-1057] registered a Binding affinity (RU) of 25 RU.

In turn, RSIQK [5mer-153] showed a Binding affinity (RU) with acetylcholine receptor [2] of 72 RU.

Regarding KPDFKR [6mer-2-1055], the Binding affinity (RU) with acetylcholine receptor [1] was found to be 30 RU.

The molecule KEMGKK [6mer-2-1053] came in with a Binding affinity (RU) with acetylcholine receptor [1] of 34 RU.

On to KQFLR [5mer-149], for which the Binding affinity (RU) in the experiment with acetylcholine receptor [2] was 80 RU.

Consider KGLYR [5mer-449], for which the Binding affinity (RU) with acetylcholine receptor [2] came out at 65 RU.

The molecule RPCEKK [6mer-2-1088] showed a Binding affinity (RU) with acetylcholine receptor [1] of 39 RU.

Molecule RHDDKR [6mer-2-1047] displayed a Binding affinity (RU) with acetylcholine receptor [1] of 28 RU.

Consider KYSWRK [6mer-2-1073], for which the Binding affinity (RU) in the experiment with acetylcholine receptor [1] was 24 RU.

RMPWKK [6mer-2-1058] yielded a Binding affinity (RU) with acetylcholine receptor [1] of 24 RU.

Take RNDERK [6mer-2-1056]: the Binding affinity (RU) with acetylcholine receptor [1] came to 22 RU.

In the experiment with acetylcholine receptor [1], KPHWKR [6mer-2-1072] yielded a Binding affinity (RU) of 29 RU.

As for RFADRR [6mer-2-1059], the Binding affinity (RU) in the experiment with acetylcholine receptor [1] stood at 35 RU.

RIHNRK [6mer-2-1048]: the Binding affinity (RU) in the experiment with acetylcholine receptor [1] turned out to be 22 RU.

For the molecule RKHKKK [6mer-2-1080], the Binding affinity (RU) with acetylcholine receptor [1] amounted to 23 RU.

Turning to RYCIRR [6mer-2-1076], the Binding affinity (RU) in the experiment with acetylcholine receptor [1] was 34 RU.

KPPPRK [6mer-2-1050] returned a Binding affinity (RU) with acetylcholine receptor [1] of 26 RU.

With KMSPRR [6mer-2-1049], the Binding affinity (RU) with acetylcholine receptor [1] is 26 RU.

RVFTK [5mer-151]: in the experiment with acetylcholine receptor [2], the Binding affinity (RU) came out at 66 RU.

On to KTNERK [6mer-2-1060], for which the Binding affinity (RU) with acetylcholine receptor [1] worked out at 35 RU.

With RFWEKK [6mer-2-1097], the Binding affinity (RU) in the experiment with acetylcholine receptor [1] was found to be 23 RU.

Consider RVRTR [5mer-150], for which, in the experiment with acetylcholine receptor [2], the Binding affinity (RU) was 64 RU.

KNDWRK [6mer-2-1086] gave a Binding affinity (RU) with acetylcholine receptor [1] of 21 RU.

Consider KTKGKR [6mer-2-1083], for which the Binding affinity (RU) with acetylcholine receptor [1] came to 39 RU.

Turning to KRYLR [5mer-155], the Binding affinity (RU) with acetylcholine receptor [2] is 57 RU.

Regarding KGVCR [5mer-453], the Binding affinity (RU) in the experiment with acetylcholine receptor [2] was found to be 68 RU.

In the experiment with acetylcholine receptor [1], KHTDKK [6mer-2-1044] registered a Binding affinity (RU) of 41 RU.

As to KHDMKK [6mer-2-1069], in the experiment with acetylcholine receptor [1], the Binding affinity (RU) amounted to 36 RU.

RIANRK [6mer-2-1065] returned a Binding affinity (RU) in the experiment with acetylcholine receptor [1] of 27 RU.

The molecule KKNKKR [6mer-2-1054] yielded a Binding affinity (RU) with acetylcholine receptor [1] of 43 RU.

The molecule RRRRR [5mer-152] yielded a Binding affinity (RU) in the experiment with acetylcholine receptor [2] of 56 RU.

With RSITR [5mer-154], the Binding affinity (RU) in the experiment with acetylcholine receptor [2] was determined as 54 RU.

KTTDKK [6mer-2-1093]: in the experiment with acetylcholine receptor [1], the Binding affinity (RU) came out at 43 RU.

Consider RDKGKK [6mer-2-1043], for which the Binding affinity (RU) with acetylcholine receptor [1] came out at 40 RU.

In the case of KYTERR [6mer-2-1082], the Binding affinity (RU) with acetylcholine receptor [1] worked out at 31 RU.

In the experiment with acetylcholine receptor [1], KCNEKK [6mer-2-1079] showed a Binding affinity (RU) of 40 RU.

In the case of RHMERK [6mer-2-1075], in the experiment with acetylcholine receptor [1], the Binding affinity (RU) is 31 RU.

With KPPIKK [6mer-2-1061], the Binding affinity (RU) in the experiment with acetylcholine receptor [1] amounted to 38 RU.

RTTWRK [6mer-2-1071] showed a Binding affinity (RU) with acetylcholine receptor [1] of 25 RU.

RFDNKR [6mer-2-1091] returned a Binding affinity (RU) with acetylcholine receptor [1] of 31 RU.

In the experiment with acetylcholine receptor [1], KYSMRR [6mer-2-1095] came in with a Binding affinity (RU) of 39 RU.

Turning to RACDKR [6mer-2-1041], the Binding affinity (RU) with acetylcholine receptor [1] is 22 RU.

Consider RIHVKK [6mer-2-1068], for which, in the experiment with acetylcholine receptor [1], the Binding affinity (RU) worked out at 26 RU.

Consider KAWERK [6mer-2-1094], for which the Binding affinity (RU) with acetylcholine receptor [1] amounted to 43 RU.

In the experiment with acetylcholine receptor [1], RNSEKR [6mer-2-1046] came in with a Binding affinity (RU) of 39 RU.

Regarding KYNIRK [6mer-2-1062], the Binding affinity (RU) with acetylcholine receptor [1] turned out to be 35 RU.

In turn, RPEIRK [6mer-2-1085] came in with a Binding affinity (RU) in the experiment with acetylcholine receptor [1] of 42 RU.

Consider RVIQK [5mer-450], for which the Binding affinity (RU) in the experiment with acetylcholine receptor [2] came to 78 RU.

(Values after patent US20250011363A1, “OPTIMIZED SHORTENED PEPTIDE THAT BINDS TO ACETYLCHOLINE RECEPTOR, AND USE THEREOF” (SKINMED CO., LTD., priority 2021, published 2025).)
